Laboratory results reported in US20250326828A1 (STAIDSON BEIJING BIOPHARMACEUTICALS, published 2025).
Like-named read-outs stand apart in the source and are kept apart here.

B1: hum_R37-5 (antibody, V domains shown)
VH: EVQLVESGGGLVKPGGSLRLSCAASGFSLSNYYMSWVRQAPGKGLEWVGMISFSGTTYATWAKGRFTISRDDSKNTVYLQINSLKTEDTAVYFCARVVYAGWTYPLGIWGQGTLVTVSS
VL: DIQLTQSPSSLSASVGDRVTITCQASQSISSVLSWYQQKPGKPPKALIYEASILASGVPSRFSGSGSGTDFTLTISSLQPEDFATYYCQANYDVYNYGNPFGGGTKVEIK
notes: Tested in human IgG1 format
B2: hum_R37-7 (antibody, V domains shown)
VH: EVQLVESGGGLVKPGGSLRLSCAASGFSLSNYYMSWVRQAPGKGLEWIGMISFSGTTYATWAKGRFTISKDSSKNTVYLQINSLKTEDTAVYFCARVVYAGWTYPLGIWGQGTLVTVSS
VL: DIQMTQSPSSLSASVGDRVTITCQASQSISSVLSWYQQKPGKPPKALIYEASILASGVPSRFSGSGSGTDFTLTISSLQPEDFATYYCQANYDVYNYGNPFGGGTKVEIK
notes: Tested in human IgG1 format
B3: hum_R37-9 (antibody, V domains shown)
VH: EVQLVESGGGLVKPGGSLRLSCAASGFSLSNYYMSWVRQAPGKGLEWIGMISFSGTTYATWAKGRFTISKDDSKNTVYLQINSLKTEDTAVYFCARVVYAGWTYPLGIWGQGTLVTVSS
VL: DIQMTQSPSSLSASVGDRVTITCQASQSISSVLSWYQQKPGKPPKALIYEASILASGVPSRFSGSGSGTDFTLTISSLQPEDFATYYCQANYDVYNYGNPFGGGTKVEIK
notes: Tested in human IgG1 format
B4: hum_R37-11 (antibody, V domains shown)
VH: EVQLVESGGGLVKPGGSLRLSCAASGFSLSNYYMSWVRQAPGKGLEWVGMISFSGTTYATWAKGRFTISRDDSKNTVYLQINSLKTEDTAVYFCARVVYAGWTYPLGIWGQGTLVTVSS
VL: DIQMTQSPSSLSASVGDRVTITCQASQSISSVLSWYQQKPGKPPKALIYEASILASGVPSRFSGSGSGTDFTLTISSLQPEDFATYYCQANYDVYNYGNPFGGGTKVEIK
notes: Tested in human IgG1 format
B5: hum_R37-13 (antibody, V domains shown)
VH: EVQLVESGGGLVKPGGSLRLSCAASGFSLSNYYMSWVRQAPGKGLEWIGMISFSGTTYATWAKGRFTISKDSSKNTVYLQINSLKTEDTAVYFCARVVYAGWTYPLGIWGQGTLVTVSS
VL: DIQMTQSPSSLSASVGDRVTITCQASQSISSVLSWYQQKPGKPPKLLIYEASILASGVPSRFSGSGSGTDFTLTISSLQPEDFATYYCQANYDVYNYGNPFGGGTKVEIK
notes: Tested in human IgG1 format
B6: hum_R37-15 (antibody, V domains shown)
VH: EVQLVESGGGLVKPGGSLRLSCAASGFSLSNYYMSWVRQAPGKGLEWIGMISFSGTTYATWAKGRFTISKDDSKNTVYLQINSLKTEDTAVYFCARVVYAGWTYPLGIWGQGTLVTVSS
VL: DIQMTQSPSSLSASVGDRVTITCQASQSISSVLSWYQQKPGKPPKLLIYEASILASGVPSRFSGSGSGTDFTLTISSLQPEDFATYYCQANYDVYNYGNPFGGGTKVEIK
notes: Tested in human IgG1 format
B7: hum_R37-18 (antibody, V domains shown)
VH: EVQLVESGGGLVKPGGSLRLSCAASGFSLSNYYMSWVRQAPGKGLEWVGMISFSGTTYATWAKGRFTISRDDSKNTLYLQMNSLKTEDTAVYFCARVVYAGWTYPLGIWGQGTLVTVSS
VL: DIQMTQSPSSLSASVGDRVTITCQASQSISSVLSWYQQKPGKPPKLLIYEASILASGVPSRFSGSGSGTDFTLTISSLQPEDFATYYCQANYDVYNYGNPFGGGTKVEIK
notes: Tested in human IgG1 format
B8: hum_R37-8 (antibody, V domains shown)
VH: EVQLVESGGGLVKPGGSLRLSCAASGFSLSNYYMSWVRQAPGKGLEWIGMISFSGTTYATWAKGRFTISKDSSTVYLQINSLKTEDTAVYFCARVVYAGWTYPLGIWGQGTLVTVSS
VL: DIQMTQSPSSLSASVGDRVTITCQASQSISSVLSWYQQKPGKPPKALIYEASILASGVPSRFSGSGSGTDFTLTISSLQPEDFATYYCQANYDVYNYGNPFGGGTKVEIK
notes: Tested in human IgG1 format
B9: hum_R37-2 (antibody, V domains shown)
VH: EVQLVESGGGLVKPGGSLRLSCAASGFSLSNYYMSWVRQAPGKGLEWIGMISFSGTTYATWAKGRFTISKDSSTVYLQINSLKTEDTAVYFCARVVYAGWTYPLGIWGQGTLVTVSS
VL: DIQLTQSPSSLSASVGDRVTITCQASQSISSVLSWYQQKPGKPPKALIYEASILASGVPSRFSGSGSGTDFTLTISSLQPEDFATYYCQANYDVYNYGNPFGGGTKVEIK
notes: Tested in human IgG1 format

Assays:
[1] = molecular target: T1, human GDF15-his (human); assay: cell-based or functional assay
T1 chain: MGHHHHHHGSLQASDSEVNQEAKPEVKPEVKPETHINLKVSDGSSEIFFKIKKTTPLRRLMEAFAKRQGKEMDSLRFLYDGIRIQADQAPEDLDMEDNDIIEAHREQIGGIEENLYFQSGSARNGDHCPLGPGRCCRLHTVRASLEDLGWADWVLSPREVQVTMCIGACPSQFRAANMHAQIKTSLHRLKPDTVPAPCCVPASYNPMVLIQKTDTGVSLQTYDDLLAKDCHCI

[2] = molecular target: T2, human GDF15-hFc (human); assay: SPR, Biacore 8K; antibody on CM5 chip
T2 construct: Recombinant hFc-tagged fusion protein expressed in 293F cells
T2 chain: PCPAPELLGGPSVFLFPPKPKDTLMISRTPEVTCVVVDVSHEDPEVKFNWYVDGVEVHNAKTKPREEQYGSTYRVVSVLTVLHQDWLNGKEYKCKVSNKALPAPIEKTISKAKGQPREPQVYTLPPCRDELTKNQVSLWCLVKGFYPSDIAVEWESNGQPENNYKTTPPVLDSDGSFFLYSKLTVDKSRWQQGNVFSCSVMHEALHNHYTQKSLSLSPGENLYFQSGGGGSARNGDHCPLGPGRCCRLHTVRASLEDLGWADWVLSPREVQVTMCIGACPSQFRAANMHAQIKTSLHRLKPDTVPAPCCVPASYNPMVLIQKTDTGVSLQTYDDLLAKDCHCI
Protocol: (§1) The binding affinity of anti-GDF15 antibodies for human GDF15, rhesus monkey GDF15, mouse GDF15 were characterized using Biacore 8K (GE). The anti-GDF15 antibodies were stabilized on sensor chip CM5. The binding affinity of antibody for GDF15 proteins from different species at various concentrations was measured. Using the SPR technology, the association and dissociation rates were measured, and binding affinity was determined.

[3] = molecular target: T3, rhesus monkey GDF15-hFc (rhesus monkey); assay: SPR, Biacore 8K; antibody on CM5 chip
T3 chain: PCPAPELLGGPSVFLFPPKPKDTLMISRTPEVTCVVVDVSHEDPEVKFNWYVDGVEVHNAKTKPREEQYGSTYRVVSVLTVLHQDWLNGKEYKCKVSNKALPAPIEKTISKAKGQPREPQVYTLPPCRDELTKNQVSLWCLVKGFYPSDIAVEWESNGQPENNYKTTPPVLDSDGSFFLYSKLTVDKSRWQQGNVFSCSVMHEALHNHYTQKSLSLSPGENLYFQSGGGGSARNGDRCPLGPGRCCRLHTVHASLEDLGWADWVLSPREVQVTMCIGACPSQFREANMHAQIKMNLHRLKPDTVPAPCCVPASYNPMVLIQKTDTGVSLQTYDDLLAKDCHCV
Protocol: as §1

[4] = molecular target: T4, mouse GDF15-hFc (mouse); assay: SPR, Biacore 8K; antibody on CM5 chip
T4 chain: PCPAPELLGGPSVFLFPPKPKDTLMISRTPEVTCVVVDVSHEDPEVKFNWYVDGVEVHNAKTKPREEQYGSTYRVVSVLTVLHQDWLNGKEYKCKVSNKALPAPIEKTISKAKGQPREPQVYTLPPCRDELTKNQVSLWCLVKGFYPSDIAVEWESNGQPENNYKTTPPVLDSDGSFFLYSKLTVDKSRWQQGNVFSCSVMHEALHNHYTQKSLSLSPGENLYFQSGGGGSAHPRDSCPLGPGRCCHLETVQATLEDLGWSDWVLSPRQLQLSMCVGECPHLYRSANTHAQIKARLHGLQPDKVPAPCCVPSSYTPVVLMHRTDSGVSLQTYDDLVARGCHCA
Protocol: as §1

[5] = molecular target: T2, human GDF15-hFc; assay: competition ELISA as in Example 2; GFRAL-his coated, antibody titrated against human GDF15-hFc
Protocol: The ELISA assay was performed to measure the inhibitory activity of anti-GDF15 antibodies in concentration gradients to block GDF15 binding to GFRAL receptor. IC₅₀ values were used as a measure for neutralizing activity of candidate molecules. Briefly, 96-well plates were coated with 100 ng/well of GFRAL-his protein (SEQ ID NO: 74), and incubated for 1 h at 37° C. The plates were washed with PBST and then blocked for 1 hour at 37° C. with 1% BSA. Gradient-diluted antibodies (dose range 0˜10 μg/ml) was added into each well, immediately followed by equal volume of human GDF15-hFc protein ([…]). After incubation and washing, 100 μl of anti-human IgG secondary antibody (goat anti-human IgG-HRP, Sigma, A8667) was added to each well. Finally, TMB solution (100 μl/well) was added. 2M H₂SO₄ was used to stop the reaction. The OD450 was measured and the binding curve was generated by PRISM to calculate the IC₅₀ value.

[6] = molecular target: T1, human GDF15-his; assay: ELISA as in Example 2: plate coated with the antibody, graded human GDF15-his, anti-his-HRP, OD450; the sheet's x axis reads 'Log GDF15 Antibody (nM)'
Protocol: (§2) ELISA binding assay: The purified monoclonal antibody was subjected to a binding assay with human GDF15-his protein. The binding assay was designed to characterize the binding activity of the anti-GDF15 antibody. Briefly, a 96-well plate was coated with anti-GDF15 antibody (200 ng/well) and incubated for 1 hour at 37° C. The plates were washed with PBST and then blocked for 1 hour at room temperature using 1% BSA. Then 100 µl/well of gradient-diluted human GDF15-his solution (dose range 0-50 μg/ml) was added into plates. After incubation, 100 μl of anti-his tag secondary antibody (anti-his-HRP (1:2000), Bersee, cat #BHR790) was added to each well. Finally, the TMB solution (100 μl/well) was added. 2M H₂SO₄ was used to stop the reaction. The OD450 was measured, and the binding curves were generated by PRISM software to analyze the affinity of candidate antibodies to human GDF15 antigen, and EC₅₀ value were calculated.

[7] = molecular target: T1, human GDF15-his; assay: as above
Protocol: as §2

[8] = molecular target: T1, human GDF15-his; assay: cell-based or functional assay
[9] = molecular target: T1, human GDF15-his; assay: ELISA as in Example 2: plate coated with the antibody, graded human GDF15-his, anti-his-HRP, OD450; the sheet's x axis reads 'Log GDF15 antibody (nM)'
Protocol: as §2

Binder	IC50 (read off the curve), SRE-luciferase signal in 293T-GFRAL/RET-Luc cells with human GDF15-his [1]	Kd [2]	koff [2]	kon [2]	Kd [3]	koff [3]	kon [3]	Kd [4]	koff [4]	kon [4]	IC50 [5]	EC50 (read off the curve) [6]	EC50 (read off the curve) [7]	IC50 (read off the curve), SRE-luciferase signal in 293T-GFRAL/RET-Luc cells with human GDF15-his [8]	EC50 (read off the curve) [9]
B1	~0.1 nM	0.584 nM	6.95e-05 s⁻¹	119000 M⁻¹ s⁻¹	1.23 nM	0.00421 s⁻¹	3.43e+06 M⁻¹ s⁻¹	106 nM	0.000869 s⁻¹	8210 M⁻¹ s⁻¹	1.9 nM	~60 nM			
B2	~0.1 nM										2.31 nM		~80 nM		
B3											1.82 nM		~80 nM	~0.2 nM	
B4											1.9 nM		~80 nM	~0.1 nM	
B5											2.06 nM			~0.1 nM	~200 nM
B6											1.59 nM			~0.2 nM	~200 nM
B7											0.88 nM			~0.2 nM	~200 nM
B8	~0.1 nM	0.607 nM	8.46e-05 s⁻¹	139000 M⁻¹ s⁻¹	1.09 nM	0.002 s⁻¹	1.84e+06 M⁻¹ s⁻¹	101 nM	0.0017 s⁻¹	16800 M⁻¹ s⁻¹	1.59 nM		~80 nM		
B9	~0.1 nM	1.07 nM	0.000137 s⁻¹	129000 M⁻¹ s⁻¹	1.28 nM	0.00263 s⁻¹	2.06e+06 M⁻¹ s⁻¹	118 nM	0.00175 s⁻¹	14800 M⁻¹ s⁻¹	1.72 nM	~60 nM			
